According to US20070269861A1:

How the values were obtained:
[1] = biological target: Crotalus durissus terrificus (C.d.t.) venom; assay: ELISA, venom-coated wells; dilution 1:5
[2] = biological target: Crotalus durissus terrificus (C.d.t.) venom; assay: ELISA, venom-coated wells; dilution 1:25
[3] = biological target: Crotalus durissus terrificus (C.d.t.) venom; assay: ELISA, venom-coated wells; dilution 1:125
[4] = biological target: Crotalus durissus terrificus (C.d.t.) venom; assay: ELISA, venom-coated wells; dilution 1:625
[5] = biological target: Crotalus durissus terrificus (C.d.t.) venom; assay: ELISA, venom-coated wells; dilution 1:3125
[6] = biological target: Crotalus durissus terrificus (C.d.t.) venom; assay: ELISA, venom-coated wells; dilution 1:62,500
[7] = biological target: Crotalus durissus terrificus (C.d.t.) venom; assay: ELISA, venom-coated wells; dilution 1:312,500
[8] = biological target: Crotalus durissus terrificus (C.d.t.) venom; assay: ELISA, venom-coated wells (5 µg/ml); undiluted
[9] = biological target: Crotalus durissus terrificus (C.d.t.) venom; assay: ELISA, venom-coated wells (5 µg/ml); dilution 1:5
[10] = biological target: Crotalus durissus terrificus (C.d.t.) venom; assay: ELISA, venom-coated wells (5 µg/ml); dilution 1:25
[11] = biological target: Crotalus durissus terrificus (C.d.t.) venom; assay: ELISA, venom-coated wells (5 µg/ml); dilution 1:125
[12] = biological target: Crotalus durissus terrificus (C.d.t.) venom; assay: ELISA, venom-coated wells (5 µg/ml); dilution 1:625
[13] = biological target: Crotalus durissus terrificus (C.d.t.) venom; assay: ELISA, venom-coated wells (5 µg/ml); dilution 1:3125

preimmune IgY (PEG preparation from eggs of unimmunized hens) (antibody)
absorbance 412 nm [1]: < 0 absorbance | absorbance 412 nm [2]: 0.016 absorbance | absorbance 412 nm [3]: < 0 absorbance | absorbance 412 nm [4]: < 0 absorbance | absorbance 412 nm [5]: < 0 absorbance | absorbance 412 nm [6]: 0.001 absorbance | absorbance 412 nm [7]: 0.01 absorbance | absorbance 412 nm [8]: 0.003 absorbance | absorbance 412 nm [9]: < 0 absorbance | absorbance 412 nm [10]: 0 absorbance | absorbance 412 nm [11]: 0.003 absorbance | absorbance 412 nm [12]: 0 absorbance | absorbance 412 nm [13]: 0.002 absorbance
